{"source": "paper PMC2710519", "tested_on": "RSC complex (17 subunits, 1.197 MDa);histone octamer (recombinant) (yeast;Xenopus laevis)", "assay": "AFM", "conditions": "RSC:mononucleosome 1:3, AFM: 1 nM RSC with 21 nM 1 kbp DNA without ATP, or RSC:mononucleosome 1:3 for 30 min with or without 4 mM ATP or ATPgS, buffer, salt, pH and temperature not in …", "data": [{"substance": "601 mononucleosome with 236 and 252 bp arms (240/240, 635 bp)", "values": [{"measurement": "binding signal (% of substrate RSC-bound)", "setting": "4 mM ATP, 50% of RSC complexes nucleosome-bound", "result": 32}, {"measurement": "binding signal (% of substrate RSC-bound)", "setting": "4 mM ATPgS, 76% of RSC complexes on bare DNA arms", "result": 52}, {"measurement": "binding signal (% of substrate RSC-bound)", "setting": "no ATP, 72% of RSC complexes on bare DNA arms", "result": 25}]}]}
